Source: patent publication US20170157251A1 (MacroGenics, published 2017)

Key:
human CD19 on cells [1] = molecular target: T1, human CD19 on cells (human, UniProt P15391 20-556); assay: cell-based or functional assay
T1 sequence (looked up): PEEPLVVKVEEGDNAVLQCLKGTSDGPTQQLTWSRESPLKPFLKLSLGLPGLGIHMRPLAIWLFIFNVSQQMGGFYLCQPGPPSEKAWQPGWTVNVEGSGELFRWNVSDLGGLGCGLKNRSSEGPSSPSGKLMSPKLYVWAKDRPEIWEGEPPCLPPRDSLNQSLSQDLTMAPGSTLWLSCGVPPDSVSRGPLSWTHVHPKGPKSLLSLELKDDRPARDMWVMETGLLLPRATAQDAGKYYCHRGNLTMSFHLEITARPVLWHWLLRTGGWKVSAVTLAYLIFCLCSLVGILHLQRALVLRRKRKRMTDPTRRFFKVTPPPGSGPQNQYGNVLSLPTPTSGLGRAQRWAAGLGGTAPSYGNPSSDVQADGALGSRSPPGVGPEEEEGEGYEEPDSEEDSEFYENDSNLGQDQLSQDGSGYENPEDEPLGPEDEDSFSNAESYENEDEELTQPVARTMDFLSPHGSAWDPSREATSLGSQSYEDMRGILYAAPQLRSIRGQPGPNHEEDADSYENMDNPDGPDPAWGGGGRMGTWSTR

human CD19 on cells [2] = molecular target: T1, human CD19 on cells; assay: cell-based or functional assay; remark: listed apart in the source
human CD19 on cells [3] = molecular target: T1, human CD19 on cells; assay: cell-based or functional assay; remark: listed apart in the source
[4] = molecular target: cynomolgus monkey CD19 on B cells (cynomolgus monkey); assay: cell-based or functional assay
human CD19 on cells [5] = molecular target: T1, human CD19 on cells; assay: cell-based or functional assay; remark: listed apart in the source
human CD19 on cells [6] = molecular target: T1, human CD19 on cells; assay: cell-based or functional assay; remark: listed apart in the source
human CD19 on cells [7] = molecular target: T1, human CD19 on cells; assay: cell-based or functional assay; remark: listed apart in the source
human CD19 on cells [8] = molecular target: T1, human CD19 on cells; assay: cell-based or functional assay; remark: listed apart in the source
human CD19 on cells [9] = molecular target: T1, human CD19 on cells; assay: cell-based or functional assay; remark: listed apart in the source
Human CD19-His = molecular target: T2, Human CD19-His (human, UniProt P15391 20-291, limits assumed); assay: SPR (BIAcore), DART-A 0-100 nM, soluble antigen
T2 construct: Soluble antigen in SPR; also called soluble human CD19; not shown: His tag
T2 sequence (looked up): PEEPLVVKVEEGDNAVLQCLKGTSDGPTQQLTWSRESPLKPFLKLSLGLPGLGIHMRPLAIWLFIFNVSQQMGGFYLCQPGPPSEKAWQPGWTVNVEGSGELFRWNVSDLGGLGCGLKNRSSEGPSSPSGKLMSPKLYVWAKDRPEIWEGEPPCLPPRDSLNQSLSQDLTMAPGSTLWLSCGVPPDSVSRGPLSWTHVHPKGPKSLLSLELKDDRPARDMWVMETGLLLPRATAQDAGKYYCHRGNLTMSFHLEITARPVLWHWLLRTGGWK

Cynomolgus CD19-His [10] = molecular target: T3, Cynomolgus CD19-His (cynomolgus monkey, UniProt A0A2K5W8L9 20-292); assay: SPR (BIAcore), DART-A 0-100 nM, soluble antigen
T3 construct: Soluble antigen in SPR; also called soluble cynomolgus monkey CD19; not shown: His tag
T3 sequence: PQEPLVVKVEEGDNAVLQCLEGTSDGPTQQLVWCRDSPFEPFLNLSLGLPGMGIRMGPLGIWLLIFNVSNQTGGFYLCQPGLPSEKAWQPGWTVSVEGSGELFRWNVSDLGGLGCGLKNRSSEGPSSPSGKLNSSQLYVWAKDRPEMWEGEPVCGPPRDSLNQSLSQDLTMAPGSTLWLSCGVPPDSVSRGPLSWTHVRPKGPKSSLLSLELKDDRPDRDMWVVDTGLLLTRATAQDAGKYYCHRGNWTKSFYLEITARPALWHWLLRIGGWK

Cynomolgus CD19-His [11] = molecular target: T3, Cynomolgus CD19-His; assay: SPR (BIAcore), comparison of KD against human CD19-His
human CD3 on T cells = molecular target: T4, human CD3 on T cells (human, UniProt P07766 23-207; P04234 22-171); assay: flow cytometry on human blood leukocytes, CD4+ and CD8+ gate (T cells); detection with biotinylated anti-E-coil/K-coil mAb and streptavidin-PE
T4 construct: also called CD3 on human CD4+ and CD8+ T cells; copies: 1 + 1

[12] = molecular target: T5, cynomolgus monkey CD3 on T cells (cynomolgus monkey, UniProt Q95LI5 22-198; Q95LI8 22-171); assay: flow cytometry on cynomolgus monkey blood leukocytes, CD4+ and CD8+ gate (T cells); detection with biotinylated anti-E-coil/K-coil mAb and streptavidin-PE
T5 construct: T cells were gated as CD4+ and CD8+; also called CD3 on cynomolgus monkey CD4+ and CD8+ T cells

[13] = molecular target: T6, soluble human CD19-biotin (human, UniProt P15391 20-291, limits assumed, biotin (site not stated)); assay: bifunctional (bispecific) ELISA: plate coated with soluble human CD3ε/δ, DART titrated, detected with soluble human CD19-biotin; the value reflects simultaneous engagement of both antigens
T6 construct: Detection antigen of the bifunctional ELISA
T6 sequence (looked up): T2 sequence (looked up)

T4 sequence (P07766 23-207 limits assumed, chain 1 of 2): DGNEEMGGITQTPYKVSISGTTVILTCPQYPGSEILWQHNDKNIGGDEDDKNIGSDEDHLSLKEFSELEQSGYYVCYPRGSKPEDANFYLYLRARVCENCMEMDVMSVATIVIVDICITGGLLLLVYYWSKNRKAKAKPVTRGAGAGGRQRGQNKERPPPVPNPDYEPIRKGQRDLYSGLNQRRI
T4 sequence (P04234 22-171 limits assumed, chain 2 of 2): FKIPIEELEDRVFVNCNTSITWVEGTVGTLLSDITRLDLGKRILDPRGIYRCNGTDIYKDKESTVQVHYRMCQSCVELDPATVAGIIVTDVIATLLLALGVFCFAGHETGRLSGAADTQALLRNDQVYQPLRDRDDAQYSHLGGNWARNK
T5 sequence (Q95LI5 22-198 limits assumed, chain 1 of 2): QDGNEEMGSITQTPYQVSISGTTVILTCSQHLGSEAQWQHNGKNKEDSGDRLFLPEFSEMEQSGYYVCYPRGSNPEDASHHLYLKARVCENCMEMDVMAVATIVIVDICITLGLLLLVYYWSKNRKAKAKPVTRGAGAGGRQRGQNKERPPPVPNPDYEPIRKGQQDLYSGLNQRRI
T5 sequence (Q95LI8 22-171 limits assumed, chain 2 of 2): as the sequence (P04234 22-171 limits assumed, chain 2 of 2) above, with I5V, N15K, I20V, S32T, D33N, I34N, T64A, S74N, V83L, H141R counted along it

B1: DART-A (CD19×CD3 bi-specific monovalent Fc diabody) (bispecific antibody)
chain 1: ENVLTQSPATLSVTPGEKATITCRASQSVSYMHWYQQKPGQAPRLLIYDASNRASGVPSRFSGSGSGTDHTLTISSLEAEDAATYYCFQGSVYPFTFGQGTKLEIKGGGSGGGGEVQLVESGGGLVQPGGSLRLSCAASGFTFSTYAMNWVRQAPGKGLEWVGRIRSKYNNYATYYADSVKGRFTISRDDSKNSLYLQMNSLKTEDTAVYYCVRHGNFGNSYVSWFAYWGQGTLVTVSSASTKGEVAACEKEVAALEKEVAALEKEVAALEKGGGDKTHTCPPCPAPEAAGGPSVFLFPPKPKDTLMISRTPEVTCVVVDVSHEDPEVKFNWYVDGVEVHNAKTKPREEQYNSTYRVVSVLTVLHQDWLNGKEYKCKVSNKALPAPIEKTISKAKGQPREPQVYTLPPSREEMTKNQVSLWCLVKGFYPSDIAVEWESNGQPENNYKTTPPVLDSDGSFFLYSKLTVDKSRWQQGNVFSCSVMHEALHNHYTQKSLSLSPGK
chain 2: QAVVTQEPSLTVSPGGTVTLTCRSSTGAVTTSNYANWVQQKPGQAPRGLIGGTNKRAPWTPARFSGSLLGGKAALTITGAQAEDEADYYCALWYSNLWVFGGGTKLTVLGGGGSGGGGQVTLRESGPALVKPTQTLTLTCTFSGFSLSTSGMGVGWIRQPPGKALEWLAHIWWDDDKRYNPALKSRLTISKDTSKNQVFLTMTNMDPVDTATYYCARMELWSYYFDYWGQGTTVTVSSASTKGKVAACKEKVAALKEKVAALKEKVAALKE
chain 3: not shown
notes: Three covalently bonded chains; one CD19 site and one CD3 site; Fc with L234A/L235A, knob/hole, H435R on third chain; also called CD19×CD3 bi-specific molecule; CD19×CD3 bi-specific DART-A
EC50 of cytotoxicity against Raji/GF target cells with cynomolgus monkey PBMCs as effector cells (E:T = 30:1) (human CD19 on cells [1]): 0.013 pM
EC50 of redirected killing of HBL-2 cells, human T cells, E:T 10:1 (average) (human CD19 on cells [1]): 10.5 pM
EC50 of redirected killing of Jeko-1 cells, human T cells, E:T 10:1 (average) (human CD19 on cells [1]): 0.146 pM
EC50 of redirected killing of Raji/GF cells, human T cells, E:T 10:1 (average) (human CD19 on cells [1]): 0.307 pM
EC50 of redirected killing of Raji/GF cells, E:T = 2.5:1, 48 hours (human CD19 on cells [2]): 1.08 pM
EC50 of redirected killing of Raji/GF cells, E:T = 5:1, 24 hours (human CD19 on cells [2]): 0.67 pM
EC50 of redirected killing of Raji/GF cells, E:T = 5:1, 48 hours (human CD19 on cells [2]): 0.38 pM
EC50 of redirected killing of Raji/GF cells, E:T = 10:1, 24 hours (human CD19 on cells [2]): 0.14 pM
EC50 of redirected killing of Raji/GF cells, E:T = 10:1, 48 hours (human CD19 on cells [2]): 0.0441 pM
EC50 of redirected killing of Raji/GF cells, E:T = 1:1, 72 hours (human CD19 on cells [3]): 2.79 pM
EC50 of redirected killing of Raji/GF cells, E:T = 1:1, 96 hours (human CD19 on cells [3]): 0.44 pM
EC50 of redirected killing of Raji/GF cells, E:T = 2.5:1, 72 hours (human CD19 on cells [3]): 1.54 pM
EC50 of redirected killing of Raji/GF cells, E:T = 2.5:1, 96 hours (human CD19 on cells [3]): 0.422 pM
EC50 of autologous B cell depletion, cynomolgus monkey PBMCs, donor Cyno 5 (E:T = 3:1) [4]: 166 pM
EC50 of autologous B cell depletion, cynomolgus monkey PBMCs, donor Cyno 6 (E:T = 2:1) [4]: 859 pM
EC50 of autologous B cell depletion, cynomolgus monkey PBMCs, donor Cyno 7 (E:T = 3:1) [4]: 107 pM
EC50 of autologous B cell depletion, cynomolgus monkey PBMCs, donor Cyno 8 (E:T = 7:1) [4]: 239 pM
mean EC50 of autologous B cell depletion, cynomolgus monkey PBMCs [4]: 343 pM
EC50 of autologous B cell depletion, human PBMCs, donor Human 5 (E:T = 8:1) (human CD19 on cells [5]): 6.27 pM
EC50 of autologous B cell depletion, human PBMCs, donor Human 6 (E:T = 8:1) (human CD19 on cells [5]): 2.75 pM
EC50 of autologous B cell depletion, human PBMCs, donor Human 7 (E:T = 5:1) (human CD19 on cells [5]): 5.52 pM
EC50 of autologous B cell depletion, human PBMCs, donor Human 8 (E:T = 9:1) (human CD19 on cells [5]): 1.84 pM
mean EC50 of autologous B cell depletion, human PBMCs (human CD19 on cells [5]): 4.2 pM
mean EC50 of IFN-γ release, CTL assay, purified human T cells with Raji/GF tumor cells (E:T = 10:1), n = 2 (human CD19 on cells [6]): 5.51 pM
mean EC50 of IL-2 release, CTL assay, purified human T cells with Raji/GF tumor cells (E:T = 10:1), n = 2 (human CD19 on cells [6]): 6.32 pM
mean EC50 of TNF-α release, CTL assay, purified human T cells with Raji/GF tumor cells (E:T = 10:1), n = 2 (human CD19 on cells [6]): 3.71 pM
mean EC50 of cytotoxicity, CTL assay, HBL-2 (n = 5), human T cells E:T = 10:1 (human CD19 on cells [6]): 0.11 pM
mean EC50 of cytotoxicity, CTL assay, Jeko-1 (n = 3), human T cells E:T = 10:1 (human CD19 on cells [6]): 0.15 pM
mean EC50 of cytotoxicity, CTL assay, Raji/GF (n = 5), human T cells E:T = 10:1 (human CD19 on cells [6]): 0.31 pM
EC50 of redirected killing of Raji/GF cells, T cells cultured 24 hours with 0 nM ibrutinib, E:T 10:1, 24 hours (human CD19 on cells [7]): 0.042 ng/mL
EC50 of redirected killing of Raji/GF cells, T cells cultured 48 hours with 0 nM ibrutinib, E:T 10:1, 24 hours (human CD19 on cells [7]): 0.0016 ng/mL
EC50 of redirected killing of Raji/GF cells, T cells cultured 72 hours with 0 nM ibrutinib, E:T 10:1, 24 hours (human CD19 on cells [7]): 0.0031 ng/mL
EC50 of redirected killing of Raji/GF cells, T cells pretreated 24 hours with 25 nM ibrutinib (human CD19 on cells [7]): 0.028 ng/mL
EC50 of redirected killing of Raji/GF cells, T cells pretreated 24 hours with 250 nM ibrutinib (human CD19 on cells [7]): 0.033 ng/mL
EC50 of redirected killing of Raji/GF cells, T cells pretreated 24 hours with 750 nM ibrutinib (human CD19 on cells [7]): 0.037 ng/mL
EC50 of redirected killing of Raji/GF cells, T cells pretreated 24 hours with 2500 nM ibrutinib (human CD19 on cells [7]): 0.104 ng/mL
EC50 of redirected killing of Raji/GF cells, T cells pretreated 48 hours with 25 nM ibrutinib (human CD19 on cells [7]): 0.0015 ng/mL
EC50 of redirected killing of Raji/GF cells, T cells pretreated 48 hours with 250 nM ibrutinib (human CD19 on cells [7]): 0.0011 ng/mL
EC50 of redirected killing of Raji/GF cells, T cells pretreated 48 hours with 750 nM ibrutinib (human CD19 on cells [7]): 0.0012 ng/mL
EC50 of redirected killing of Raji/GF cells, T cells pretreated 48 hours with 2500 nM ibrutinib (human CD19 on cells [7]): 0.0044 ng/mL
EC50 of redirected killing of Raji/GF cells, T cells pretreated 72 hours with 25 nM ibrutinib (human CD19 on cells [7]): 0.0021 ng/mL
EC50 of redirected killing of Raji/GF cells, T cells pretreated 72 hours with 250 nM ibrutinib (human CD19 on cells [7]): 0.002 ng/mL
EC50 of redirected killing of Raji/GF cells, T cells pretreated 72 hours with 750 nM ibrutinib (human CD19 on cells [7]): 0.0018 ng/mL
EC50 of redirected killing of Raji/GF cells, T cells pretreated 72 hours with 2500 nM ibrutinib (human CD19 on cells [7]): 0.0085 ng/mL
EC50 of redirected killing of Raji/GF cells, 0 nM ibrutinib, CTL assay 24 hours, E:T 10:1 (human CD19 on cells [8]): 0.014 ng/mL
EC50 of redirected killing of Raji/GF cells, 0 nM ibrutinib, CTL assay 48 hours, E:T 10:1 (human CD19 on cells [8]): 0.0022 ng/mL
EC50 of autologous B cell depletion, human PBMCs, 0 nM ibrutinib, 48 hours (human CD19 on cells [9]): 0.79 ng/mL
Kd (Human CD19-His): 2000 pM
koff (Human CD19-His): 0.00056 s⁻¹
kon (Human CD19-His): 280000 M⁻¹ s⁻¹
Kd (Cynomolgus CD19-His [10]): 20300 pM
koff (Cynomolgus CD19-His [10]): 0.0047 s⁻¹
kon (Cynomolgus CD19-His [10]): 240000 M⁻¹ s⁻¹
fold lower affinity than for human CD19 (Cynomolgus CD19-His [11]): ~10 fold
binding result (human CD3 on T cells): binds
binding result [12]: binds
EC50 (read off the curve) [13]: ~80 ng/mL
